# Patent publication US20060240001A1 (AGOURON PHARMACEUTICALS, published 2006)
# T1: recombinant human E-cadherin (R&D Systems 648-EC-100) (human, UniProt P12830 155-707)
# T1 construct: Bought protein
# T1 sequence (looked up): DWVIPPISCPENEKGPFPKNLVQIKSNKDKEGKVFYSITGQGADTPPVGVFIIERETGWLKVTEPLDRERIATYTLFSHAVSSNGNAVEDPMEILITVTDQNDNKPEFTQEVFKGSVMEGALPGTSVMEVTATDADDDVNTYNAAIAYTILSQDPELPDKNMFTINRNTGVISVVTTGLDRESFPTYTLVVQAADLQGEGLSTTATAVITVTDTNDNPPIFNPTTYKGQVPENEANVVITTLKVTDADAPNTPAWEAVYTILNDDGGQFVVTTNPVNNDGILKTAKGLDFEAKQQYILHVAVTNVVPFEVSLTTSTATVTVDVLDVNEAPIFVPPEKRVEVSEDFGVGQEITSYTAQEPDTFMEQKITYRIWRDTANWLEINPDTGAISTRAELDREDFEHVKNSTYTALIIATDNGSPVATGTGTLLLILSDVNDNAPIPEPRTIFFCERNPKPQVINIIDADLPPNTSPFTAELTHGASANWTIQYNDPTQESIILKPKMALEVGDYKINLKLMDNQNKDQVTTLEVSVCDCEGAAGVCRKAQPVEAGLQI
# Experiments:
# [1] = target: T2, human P-cadherin on the surface of cells (human, UniProt P22223 108-829); assay: epitope competition on A431 cells; competitor: biotinylated 129-1c4 IgG at 1x KD, DELFIA
# T2 construct: whole, on cells; also called native P-cadherin on the surface of A431 cells; SW480 cells stably expressing P-cadherin
# [2] = target: T2, human P-cadherin on the surface of cells; assay: cell-based or functional assay
# [3] = target: T2, human P-cadherin on the surface of cells; assay: cell-based or functional assay; remark: listed apart in the source
# [4] = target: T2, human P-cadherin on the surface of cells; assay: cell-based or functional assay; remark: listed apart in the source
# [5] = target: T2, human P-cadherin on the surface of cells; assay: cell-based or functional assay; remark: listed apart in the source
# [6] = target: T3, Recombinant human P-cadherin Fc (R&D Systems 861-PC-100) (human, UniProt P22223 108-654); assay: ELISA on coated antigen, relative KD
# T3 construct: also called recombinant human P-cadherin/Fc fusion protein; hCad/Fc; not shown: Fc part of the bought fusion protein
# [7] = target: T3, Recombinant human P-cadherin Fc (R&D …); assay: ELISA; KD on E-cadherin over KD on P-cadherin
# [8] = target: T1, recombinant human E-cadherin (R&D …); assay: ELISA on coated antigen, relative KD
Binder,IC50 [1] [nM],A431 Adhesion Assay Mean IC50 (nM) (n = 3) [2],SW480 Aggregation Assay Mean IC50 [4] [nM],further results
"scFv variant of 129-1c4 with VH CDR3 SEQ ID NO: 37 and VL CDR3 SEQ ID NO: 305 (scFv, V domains shown, His-tagged purified scFv; also called 37 / 305) VH: not shown VL: QSALTQPASVSGSPGQSITISCTGTSNDVGAYNYVSWYQQHPGKAPKLILSEVNKRPSGVSNRFSGSKSGNTASLSISGLQAEDEADYYCSSFTSGQQWVLFGGGTKLTVL",2.19,,,
"194-e06 (antibody, V domains shown) VH: not shown VL: QSALTQPASVSGSPGQSITISCTGTSNDVGAYNYVSWYQQHPGKAPKLILSEVNKRPSGVSNRFSGSKSGNTASLSISGLQAEDEADYYCSSFTSGLPWVLFGGGTKLTVL",,0.162,0.7,A431 Adhesion Assay Mean IC50 (nM) (n = 2) [3]: 0.46 nM
"196-h02 (antibody, V domains shown, Tested as IgG converted from scFv; also called 196-h02 IgG) VH: not shown VL: QSALTQPASVSGSPGQSITISCTGTSNDVGAYNYVSWYQQHPGKAPKLILSEVNKRPSGVSNRFSGSKSGNTASLSISGLQAEDEADYYCTSYTMGSTFMLFGGGTKLTVL",,0.148,3.2,"SW480 Spheroid Disruption Assay, Fold Increased Disruption vs Control at 5 nM [5]: 10 fold; Kd [6]: 0.102 nM; KD(E)/KD(P) [7]: 326"
"scFv variant of 129-1c4 with VH CDR3 SEQ ID NO: 37 and VL CDR3 SEQ ID NO: 295 (scFv, V domains shown, His-tagged purified scFv; also called 37 / 295) VH: not shown VL: QSALTQPASVSGSPGQSITISCTGTSNDVGAYNYVSWYQQHPGKAPKLILSEVNKRPSGVSNRFSGSKSGNTASLSISGLQAEDEADYYCSSFTSGKTFVLFGGGTKLTVL",0.8,,,
"scFv variant of 129-1c4 with VH CDR3 SEQ ID NO: 37 and VL CDR3 SEQ ID NO: 274 (scFv, V domains shown, His-tagged purified scFv; also called 37 / 274) VH: not shown VL: QSALTQPASVSGSPGQSITISCTGTSNDVGAYNYVSWYQQHPGKAPKLILSEVNKRPSGVSNRFSGSKSGNTASLSISGLQAEDEADYYCGAYSAGSTFMLFGGGTKLTVL",8.73,,,
"195-a09 (antibody, V domains shown, Tested as IgG converted from scFv; also called 195-a09 IgG) VH: not shown VL: QSALTQPASVSGSPGQSITISCTGTSNDVGAYNYVSWYQQHPGKAPKLILSEVNKRPSGVSNRFSGSKSGNTASLSISGLQAEDEADYYCTSYTMGSTFMLFGGGTKLTVL",,0.114,1.7,"SW480 Spheroid Disruption Assay, Fold Increased Disruption vs Control at 5 nM [5]: 10 fold; Kd [6]: 0.12 nM; Kd [8]: 11.5 nM; KD(E)/KD(P) [7]: 96"
"scFv variant of 129-1c4 with VH CDR3 SEQ ID NO: 37 and VL CDR3 SEQ ID NO: 287 (scFv, V domains shown, His-tagged purified scFv; also called 37 / 287) VH: not shown VL: QSALTQPASVSGSPGQSITISCTGTSNDVGAYNYVSWYQQHPGKAPKLILSEVNKRPSGVSNRFSGSKSGNTASLSISGLQAEDEADYYCSSFTSGIKFTLFGGGTKLTVL",10.5,,,
"scFv variant of 129-1c4 with VH CDR3 SEQ ID NO: 37 and VL CDR3 SEQ ID NO: 43 (scFv, V domains shown, His-tagged purified scFv; also called 37 / 43) VH: not shown VL: QSALTQPASVSGSPGQSITISCTGTSNDVGAYNYVSWYQQHPGKAPKLILSEVNKRPSGVSNRFSGSKSGNTASLSISGLQAEDEADYYCTSYTMGSTFMLFGGGTKLTVL",5.67,,,
"scFv variant of 129-1c4 with VH CDR3 SEQ ID NO: 37 and VL CDR3 SEQ ID NO: 304 (scFv, V domains shown, His-tagged purified scFv; also called 37 / 304) VH: not shown VL: QSALTQPASVSGSPGQSITISCTGTSNDVGAYNYVSWYQQHPGKAPKLILSEVNKRPSGVSNRFSGSKSGNTASLSISGLQAEDEADYYCSSFTSGPVFNLFGGGTKLTVL",1.1,,,
"194-e01 (antibody, V domains shown, Tested as IgG converted from scFv) VH: not shown VL: QSALTQPASVSGSPGQSITISCTGTSNDVGAYNYVSWYQQHPGKAPKLILSEVNKRPSGVSNRFSGSKSGNTASLSISGLQAEDEAGYYCTSYRAGSTFMLFGGGTKLTVL",,0.147,1.3,"SW480 Spheroid Disruption Assay, Fold Increased Disruption vs Control at 5 nM [5]: 16 fold; Kd [6]: 0.112 nM; Kd [8]: 20.5 nM; KD(E)/KD(P) [7]: 183"
"scFv variant of 129-1c4 with VH CDR3 SEQ ID NO: 165 and VL CDR3 SEQ ID NO: 47 (scFv, V domains shown, His-tagged purified scFv; also called 165 / 47) VH: not shown VL: QSALTQPASVSGSPGQSITISCTGTSNDVGAYNYVSWYQQHPGKAPKLILSEVNKRPSGVSNRFSGSKSGNTASLSISGLQAEDEADYYCSSFTSGSTFMLFGGGTKLTVL",5.11,,,
"scFv variant of 129-1c4 with VH CDR3 SEQ ID NO: 195 and VL CDR3 SEQ ID NO: 47 (scFv, V domains shown, His-tagged purified scFv; also called 195 / 47) VH: not shown VL: QSALTQPASVSGSPGQSITISCTGTSNDVGAYNYVSWYQQHPGKAPKLILSEVNKRPSGVSNRFSGSKSGNTASLSISGLQAEDEADYYCSSFTSGSTFMLFGGGTKLTVL",1.29,,,
"scFv variant of 129-1c4 with VH CDR3 SEQ ID NO: 37 and VL CDR3 SEQ ID NO: 299 (scFv, V domains shown, His-tagged purified scFv; also called 37 / 299) VH: not shown VL: QSALTQPASVSGSPGQSITISCTGTSNDVGAYNYVSWYQQHPGKAPKLILSEVNKRPSGVSNRFSGSKSGNTASLSISGLQAEDEADYYCSSFTSDRAFNLFGGGTKLTVL",1.97,,,
